# Assay results from patent publication US20210246166A1 (Bayer, published 2021).
# Bridge positions count the residues as written; N and C are the ends. Square brackets hold non-standard residues; d marks the D form. Primed or numbered codes have the meaning given here. Ends that are not written are not given here. PEG9(31 atoms) = 1-amino-3,6,9,12,15,18,21,24,27-nonaoxatriacontan-30-oic acid; Oic = O=C(O)[C@@H]1C[C@@H]2CCCC[C@@H]2N1; Pro‑D2″ = L-Proline (3,4-2H), deuterated; PEG6 = NCCOCCOCCOCCOCCOCCOCCC(=O)O; NMeI = CC[C@H](C)[C@H](NC)C(=O)O; tBuAla = CC(C)(C)C[C@H](N)C(=O)O; PEG5 = NCCOCCOCCOCCOCCOCCC(=O)O; PEG4 = NCCOCCOCCOCCOCCC(=O)O; Pen = CC(C)(S)[C@H](N)C(=O)O; NMeA = CN[C@@H](C)C(=O)O; Orn = NCCC[C@H](N)C(=O)O; Abu = CC[C@H](N)C(=O)O; Sar = CNCC(=O)O
# T1: recombinant human MASP1 active protease (amino acids 297-699, C-terminal His Tag) (human, UniProt P48740 297-699)
# T1 sequence: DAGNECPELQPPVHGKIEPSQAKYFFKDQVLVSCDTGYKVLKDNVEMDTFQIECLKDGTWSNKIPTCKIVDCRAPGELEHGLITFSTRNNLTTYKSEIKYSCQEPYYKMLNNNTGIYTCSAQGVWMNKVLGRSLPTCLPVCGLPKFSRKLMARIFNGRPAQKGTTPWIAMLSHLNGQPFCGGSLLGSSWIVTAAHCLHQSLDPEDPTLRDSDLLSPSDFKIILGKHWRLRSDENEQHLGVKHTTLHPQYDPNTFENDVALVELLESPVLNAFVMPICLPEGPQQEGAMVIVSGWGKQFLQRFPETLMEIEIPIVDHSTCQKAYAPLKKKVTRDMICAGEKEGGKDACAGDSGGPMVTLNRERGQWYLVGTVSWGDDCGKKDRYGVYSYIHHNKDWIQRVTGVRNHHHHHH
# B1: (Orn)-IC+SRS-((tBu)A)-PPI-(Pen)+IP-OH (peptide)
# peptide: [Orn]ICSRS[tBuAla]PPI[Pen]IP-OH
# modifications: disulfide 3-11; N-terminus assumed
# SMILES: CC[C@H](C)[C@H](NC(=O)[C@@H](N)CCCN)C(=O)N[C@H]1CSSC(C)(C)[C@@H](C(=O)N[C@H](C(=O)N2CCC[C@H]2C(=O)O)[C@@H](C)CC)NC(=O)[C@H]([C@@H](C)CC)NC(=O)[C@@H]2CCCN2C(=O)[C@@H]2CCCN2C(=O)[C@H](CC(C)(C)C)NC(=O)[C@H](CO)NC(=O)[C@H](CCCNC(=N)N)NC(=O)[C@H](CO)NC1=O
# B2: AIC+SRS-((tBu)A)-PPI-(Pen)+IPD-OH (peptide)
# peptide: AICSRS[tBuAla]PPI[Pen]IPD-OH
# modifications: disulfide 3-11; N-terminus assumed
# SMILES: CC[C@H](C)[C@H](NC(=O)[C@H](C)N)C(=O)N[C@H]1CSSC(C)(C)[C@@H](C(=O)N[C@H](C(=O)N2CCC[C@H]2C(=O)N[C@@H](CC(=O)O)C(=O)O)[C@@H](C)CC)NC(=O)[C@H]([C@@H](C)CC)NC(=O)[C@@H]2CCCN2C(=O)[C@@H]2CCCN2C(=O)[C@H](CC(C)(C)C)NC(=O)[C@H](CO)NC(=O)[C@H](CCCNC(=N)N)NC(=O)[C@H](CO)NC1=O
# B3: AIC+SRS-((tBu)A)-P-(Oic)-I-(Pen)+IPD-OH (peptide)
# peptide: AICSRS[tBuAla]P[Oic]I[Pen]IPD-OH
# modifications: disulfide 3-11; N-terminus assumed
# SMILES: CC[C@H](C)[C@H](NC(=O)[C@H](C)N)C(=O)N[C@H]1CSSC(C)(C)[C@@H](C(=O)N[C@H](C(=O)N2CCC[C@H]2C(=O)N[C@@H](CC(=O)O)C(=O)O)[C@@H](C)CC)NC(=O)[C@H]([C@@H](C)CC)NC(=O)[C@@H]2C[C@@H]3CCCC[C@@H]3N2C(=O)[C@@H]2CCCN2C(=O)[C@H](CC(C)(C)C)NC(=O)[C@H](CO)NC(=O)[C@H](CCCNC(=N)N)NC(=O)[C@H](CO)NC1=O
# B4: TIC+SRS-((tBu)A)-PPI-(Pen)+IPD-OH (peptide)
# peptide: TICSRS[tBuAla]PPI[Pen]IPD-OH
# modifications: disulfide 3-11; N-terminus assumed
# SMILES: CC[C@H](C)[C@H](NC(=O)[C@@H](N)[C@@H](C)O)C(=O)N[C@H]1CSSC(C)(C)[C@@H](C(=O)N[C@H](C(=O)N2CCC[C@H]2C(=O)N[C@@H](CC(=O)O)C(=O)O)[C@@H](C)CC)NC(=O)[C@H]([C@@H](C)CC)NC(=O)[C@@H]2CCCN2C(=O)[C@@H]2CCCN2C(=O)[C@H](CC(C)(C)C)NC(=O)[C@H](CO)NC(=O)[C@H](CCCNC(=N)N)NC(=O)[C@H](CO)NC1=O
# B5: TIC+SRS-((tBu)A)-PPI-(Pen)+IPD-NH2 (peptide)
# peptide: TICSRS[tBuAla]PPI[Pen]IPD-NH2
# modifications: disulfide 3-11; N-terminus assumed
# SMILES: CC[C@H](C)[C@H](NC(=O)[C@@H](N)[C@@H](C)O)C(=O)N[C@H]1CSSC(C)(C)[C@@H](C(=O)N[C@H](C(=O)N2CCC[C@H]2C(=O)N[C@@H](CC(=O)O)C(N)=O)[C@@H](C)CC)NC(=O)[C@H]([C@@H](C)CC)NC(=O)[C@@H]2CCCN2C(=O)[C@@H]2CCCN2C(=O)[C@H](CC(C)(C)C)NC(=O)[C@H](CO)NC(=O)[C@H](CCCNC(=N)N)NC(=O)[C@H](CO)NC1=O
# B6: ((N-Me)G)-((N-Me)I)-C+SRS-((tBu)A)-PPI-(Pen)+IP-NH2 (peptide)
# peptide: [Sar][NMeI]CSRS[tBuAla]PPI[Pen]IP-NH2
# modifications: disulfide 3-11; N-terminus assumed
# SMILES: CC[C@H](C)[C@@H]1NC(=O)[C@@H]2CCCN2C(=O)[C@@H]2CCCN2C(=O)[C@H](CC(C)(C)C)NC(=O)[C@H](CO)NC(=O)[C@H](CCCNC(=N)N)NC(=O)[C@H](CO)NC(=O)[C@@H](NC(=O)[C@H]([C@@H](C)CC)N(C)C(=O)CNC)CSSC(C)(C)[C@@H](C(=O)N[C@H](C(=O)N2CCC[C@H]2C(N)=O)[C@@H](C)CC)NC1=O
# B7: ((N-Me)A)-IC+SRSLP-(Oic)-I-(Pen)+I-NH2 (peptide)
# peptide: [NMeA]ICSRSLP[Oic]I[Pen]I-NH2
# modifications: disulfide 3-11; N-terminus assumed
# SMILES: CC[C@H](C)[C@H](NC(=O)[C@H]1NC(=O)[C@H]([C@@H](C)CC)NC(=O)[C@@H]2C[C@@H]3CCCC[C@@H]3N2C(=O)[C@@H]2CCCN2C(=O)[C@H](CC(C)C)NC(=O)[C@H](CO)NC(=O)[C@H](CCCNC(=N)N)NC(=O)[C@H](CO)NC(=O)[C@@H](NC(=O)[C@@H](NC(=O)[C@H](C)NC)[C@@H](C)CC)CSSC1(C)C)C(N)=O
# B8: ((N-Me)G)-IC+SRSLP-(Oic)-I-(Pen)+IP-(PEG5(22 atoms))-NH2 (peptide)
# peptide: [Sar]ICSRSLP[Oic]I[Pen]IP[PEG6]-NH2
# modifications: disulfide 3-11; N-terminus assumed
# SMILES: CC[C@H](C)[C@H](NC(=O)CNC)C(=O)N[C@H]1CSSC(C)(C)[C@@H](C(=O)N[C@H](C(=O)N2CCC[C@H]2C(=O)NCCOCCOCCOCCOCCOCCOCCC(N)=O)[C@@H](C)CC)NC(=O)[C@H]([C@@H](C)CC)NC(=O)[C@@H]2C[C@@H]3CCCC[C@@H]3N2C(=O)[C@@H]2CCCN2C(=O)[C@H](CC(C)C)NC(=O)[C@H](CO)NC(=O)[C@H](CCCNC(=N)N)NC(=O)[C@H](CO)NC1=O
# B9: ((N-Me)G)-IC+SRS-((tBu)A)-PPI-(Pen)+IP-(PEG3(16atoms))-NH2 (peptide)
# peptide: [Sar]ICSRS[tBuAla]PPI[Pen]IP[PEG4]-NH2
# modifications: disulfide 3-11; N-terminus assumed
# SMILES: CC[C@H](C)[C@H](NC(=O)CNC)C(=O)N[C@H]1CSSC(C)(C)[C@@H](C(=O)N[C@H](C(=O)N2CCC[C@H]2C(=O)NCCOCCOCCOCCOCCC(N)=O)[C@@H](C)CC)NC(=O)[C@H]([C@@H](C)CC)NC(=O)[C@@H]2CCCN2C(=O)[C@@H]2CCCN2C(=O)[C@H](CC(C)(C)C)NC(=O)[C@H](CO)NC(=O)[C@H](CCCNC(=N)N)NC(=O)[C@H](CO)NC1=O
# B10: AIC+SRSLP-(Oic)-IC+IPD-OH (peptide)
# peptide: AICSRSLP[Oic]ICIPD-OH
# modifications: disulfide 3-11; N-terminus assumed
# SMILES: CC[C@H](C)[C@H](NC(=O)[C@H](C)N)C(=O)N[C@H]1CSSC[C@@H](C(=O)N[C@H](C(=O)N2CCC[C@H]2C(=O)N[C@@H](CC(=O)O)C(=O)O)[C@@H](C)CC)NC(=O)[C@H]([C@@H](C)CC)NC(=O)[C@@H]2C[C@@H]3CCCC[C@@H]3N2C(=O)[C@@H]2CCCN2C(=O)[C@H](CC(C)C)NC(=O)[C@H](CO)NC(=O)[C@H](CCCNC(=N)N)NC(=O)[C@H](CO)NC1=O
# B11: A-(Abu)-C+SRS-((tBu)A)-PPI-(Pen)+IPD-NH2 (peptide)
# peptide: A[Abu]CSRS[tBuAla]PPI[Pen]IPD-NH2
# modifications: disulfide 3-11; N-terminus assumed
# SMILES: CC[C@H](NC(=O)[C@H](C)N)C(=O)N[C@H]1CSSC(C)(C)[C@@H](C(=O)N[C@H](C(=O)N2CCC[C@H]2C(=O)N[C@@H](CC(=O)O)C(N)=O)[C@@H](C)CC)NC(=O)[C@H]([C@@H](C)CC)NC(=O)[C@@H]2CCCN2C(=O)[C@@H]2CCCN2C(=O)[C@H](CC(C)(C)C)NC(=O)[C@H](CO)NC(=O)[C@H](CCCNC(=N)N)NC(=O)[C@H](CO)NC1=O
# B12: ((N-Me)A)-IC+SRSLP-(Oic)-I-(Pen)+IPQ-NH2 (peptide)
# peptide: [NMeA]ICSRSLP[Oic]I[Pen]IPQ-NH2
# modifications: disulfide 3-11; N-terminus assumed
# SMILES: CC[C@H](C)[C@H](NC(=O)[C@H](C)NC)C(=O)N[C@H]1CSSC(C)(C)[C@@H](C(=O)N[C@H](C(=O)N2CCC[C@H]2C(=O)N[C@@H](CCC(N)=O)C(N)=O)[C@@H](C)CC)NC(=O)[C@H]([C@@H](C)CC)NC(=O)[C@@H]2C[C@@H]3CCCC[C@@H]3N2C(=O)[C@@H]2CCCN2C(=O)[C@H](CC(C)C)NC(=O)[C@H](CO)NC(=O)[C@H](CCCNC(=N)N)NC(=O)[C@H](CO)NC1=O
# B13: ((N-Me)G)-IC+SRS-((tBu)A)-PPI-(Pen)+IP-(PEG4(19 atoms))-NH2 (peptide)
# peptide: [Sar]ICSRS[tBuAla]PPI[Pen]IP[PEG5]-NH2
# modifications: disulfide 3-11; N-terminus assumed
# SMILES: CC[C@H](C)[C@H](NC(=O)CNC)C(=O)N[C@H]1CSSC(C)(C)[C@@H](C(=O)N[C@H](C(=O)N2CCC[C@H]2C(=O)NCCOCCOCCOCCOCCOCCC(N)=O)[C@@H](C)CC)NC(=O)[C@H]([C@@H](C)CC)NC(=O)[C@@H]2CCCN2C(=O)[C@@H]2CCCN2C(=O)[C@H](CC(C)(C)C)NC(=O)[C@H](CO)NC(=O)[C@H](CCCNC(=N)N)NC(=O)[C@H](CO)NC1=O
# Target: T1, recombinant human MASP1 active protease …
# Assay: cell-based or functional assay
row,Binder,human MASP1 IC50 [nM]
1,AICSRSL[Pro‑D2″][Oic]I[Pen]IPD-OH (disulfide 3-11) [AIC+SRSL-(Pro-D2)-(Oic)-I-(Pen)+IPD-OH],2.13
2,B1,3.6
3,B2,1.2
4,B3,1.3
5,B4,3.7
6,B5,3.6
7,B6,3.7
8,B7,3.75
9,B8,3.5
10,B9,1.3
11,B10,4.65
12,B11,3.7
13,[Sar]ICSRSLP[Oic]I[Pen]IP[PEG9(31 atoms)]-NH2 (disulfide 3-11) [((N-Me)G)-IC+SRSLP-(Oic)-I-(Pen)+IP-(PEG9(31 atoms))-NH2],3.7
14,[2‑(Pyrrolidine)acetyl]ICSRS[tBuAla]PPI[Pen]IPD-NH2 (disulfide 3-11) [(2-(Pyrrolidine)acetyl)-IC+SRS-((tBu)A)-PPI-(Pen)+IPD-NH2],1.3
15,B12,3.5
16,B13,3.6

# Target: recombinant human MASP2 active protease (amino acids 297-686, C-terminal His Tag) (human, UniProt O00187 297-686)
# Assay: cell-based or functional assay
# Sequence of recombinant human MASP2 active protease (amino acids 297-686, C-terminal His Tag) (O00187 other isoform, or with tags, fused parts or gaps limits assumed): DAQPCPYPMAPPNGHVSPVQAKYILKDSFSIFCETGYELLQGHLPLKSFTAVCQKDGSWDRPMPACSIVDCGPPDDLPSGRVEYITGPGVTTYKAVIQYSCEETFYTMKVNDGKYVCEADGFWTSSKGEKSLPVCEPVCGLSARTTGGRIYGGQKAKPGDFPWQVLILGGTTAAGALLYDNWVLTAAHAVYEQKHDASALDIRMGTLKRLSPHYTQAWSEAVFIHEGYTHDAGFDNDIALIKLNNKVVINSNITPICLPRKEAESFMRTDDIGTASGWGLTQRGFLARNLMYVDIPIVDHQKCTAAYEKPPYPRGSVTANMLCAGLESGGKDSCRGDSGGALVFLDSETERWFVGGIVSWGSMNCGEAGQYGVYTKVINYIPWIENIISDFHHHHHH
row,Binder,human MASP2 IC50 [nM]
1,AICSRSL[Pro‑D2″][Oic]I[Pen]IPD-OH (disulfide 3-11) [AIC+SRSL-(Pro-D2)-(Oic)-I-(Pen)+IPD-OH],126
2,B1,130
3,B2,37
4,B3,62
5,B4,56
6,B5,74.5
7,B6,590
8,B7,195
9,B8,90
10,B9,28
11,B10,316
12,B11,68
13,[Sar]ICSRSLP[Oic]I[Pen]IP[PEG9(31 atoms)]-NH2 (disulfide 3-11) [((N-Me)G)-IC+SRSLP-(Oic)-I-(Pen)+IP-(PEG9(31 atoms))-NH2],100
14,[2‑(Pyrrolidine)acetyl]ICSRS[tBuAla]PPI[Pen]IPD-NH2 (disulfide 3-11) [(2-(Pyrrolidine)acetyl)-IC+SRS-((tBu)A)-PPI-(Pen)+IPD-NH2],87
15,B12,190
16,B13,60
